Laboratory results from patent CN108727489A (GUANGZHOU 8TH PEOPLES HOSPITAL; UNIV TSINGHUA, dated 2018).

Columns and labels:
[1] = target: 寨卡病毒GZ01株的E蛋白 (on virus particles) (Zika virus GZ01 strain); test: cell-based or functional assay
E-His 6 融合蛋白 = target: T1, E-His 6 融合蛋白 (Zika virus, UniProt A0A024B7W1 292-693); test: ELISA screen of memory B cell culture supernatants on coated E-His6 fusion protein
T1 construct: Expressed in 293T cells, purified on a Ni column and by gel filtration; Used as the ELISA coating antigen; also called E-His6 fusion protein; 寨卡病毒的E蛋白
T1 sequence (A0A024B7W1 292-693, tags left off): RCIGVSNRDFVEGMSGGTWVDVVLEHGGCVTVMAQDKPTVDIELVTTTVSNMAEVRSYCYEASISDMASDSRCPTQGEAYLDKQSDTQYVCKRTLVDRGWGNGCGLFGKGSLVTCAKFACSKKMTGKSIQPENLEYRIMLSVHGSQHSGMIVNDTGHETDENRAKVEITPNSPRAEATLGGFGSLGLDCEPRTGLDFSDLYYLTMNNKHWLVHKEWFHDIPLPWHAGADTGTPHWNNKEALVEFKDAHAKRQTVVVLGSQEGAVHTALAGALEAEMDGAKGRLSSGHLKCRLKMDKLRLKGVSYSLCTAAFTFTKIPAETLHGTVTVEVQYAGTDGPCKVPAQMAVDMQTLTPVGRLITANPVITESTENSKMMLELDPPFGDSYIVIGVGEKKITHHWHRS

B1: ZK2C2 (antibody, human IgG1, lambda, V domains shown)
VH: EVQLLESGGGVVQPGRSLRLSCAGSGFTFSSYGMHWVRQAPGKGLEWVAVISYDGSNKYYVDSVKGRFTISRDNSRNTLYLQMNNLKAEDTAVYYCAKGHLIDWGQGTLVTVSS
VL: QLVLTQPPSASGTPGQRVTISCSGSSSNIGRNIVNWYQQFPGTTPKLLIYGTNQRPSGVPDRFSGSKSGTSASLAISGLQSEDETNYYCAAWDDSLNGWLFGGGTKLTVLG
notes: also called 单克隆抗体ZK2C2; ZK2C2抗体
Q: Which results are given for B1?
A: 中和百分比为50%时的抗体浓度 (IC50), plaque reduction on Vero cells [1]: 3.8 µg/mL; binding result (E-His 6 融合蛋白): binds
